Test results: patent US6828121

Target: humanized anti-CD18 kappa light chain

B1: Prc protease (periplasmic C-terminal processing protein) (protein)
chain: VEDITRADQIPVLKEETQHATVSERVTSRFTRSHYRQFDLDQAFSAKIFDRYLNLLDYSHNVLLASDVEQFAKKKTELGDELRSGKLDVFYDLYNLAQKRRFERYQYALSVLEKPMDFTGNDTYNLDRSKAPWPKNEAELNALWDSKVKFDELSLKLTGKTDKEIRETLTRRYKFAIRRLAQTNSEDVFSLAMTAFAREIDPHTNYLSPRNTEQFNTEMSLSLEGIGAVLQMDDDYTVINSMVAGGPAAKSKAISVGDKIVGVGQTGKPMVDVIGWRLDDVVALIKGPKGSKVRLEILPAGKGTKTRTVTLTRERIRLEDRAVKMSVKTVGKEKVGVLDIPGFYVGLTDDVKVQLQKLEKQNVSSVIIDLRSNGGGALTEAVSLSGLFIPAGPIVQVRDNNGKVREDSDTDGQVFYKGPLVVLVDRFSASASEIFAAAMQDYGRALVVGEPTFGKGTVQQYRSLNRIYDQMLRPEWPALGSVQYTIQKFYRVNGGSTQRKGVTPDIIMPTGNEETETGEKFEDNALPWDSIDAATYVKSGDLTAFEPELLKEHNARIAKDPEFQNIMKDIARFNAMKDKRNIVSLNYAVREKENNEDDATRLARLNERFKREGKPELKKLDDLPKDYQEPDPYLDETVNIALDLAKLEKARPAEQPAPVK
Q: How did the “kappa LC cleavage (LC clips on 1-D/2-D gels and peak 1 of the AME5/RP assay in prc-plus against prc-deletion strains)” value turn out when B1 was run?
A: Here it is shown that Prc is the only protease involved in kappa LC cleavage inside E. coli cells.
